Experiment: yeast display, Sf9 membrane polyspecificity reagent, FACS + sequencing; frameworks hold sequencing errors
Method in brief: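 Using colony PCR, genes from sorted yeast display clones were amplified, then sequenced on MiSeq at 2 × 250 and filtered by CDR length. The clones had been stained with 10% biotinylated, detergent-solubilized Sf9 membrane reagent for 1 hour at 4 °C and sorted by FACS into low and high (top ~1%) gates on anti-HA and streptavidin fluorescence. Polyreactivity labels come from the gate of origin.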

Sequence	polyreactivity (PSR sort gate)
QVQLVESGGGLVQAGGSLRLRCAASGFTSYINAMGWYRQAPGKERELVAGITWSTGNTYYADSVKGRFTISRDNAKNTVYLQMNSLKPEDTAVYYCAADFYVAYVGVQPYWMDYWGQGTEVTVSS	low polyreactivity
QVQLVESGGGLVQAGGSLRLSCAACGFIFRRYAMGWYRQAPGKERELVAAISSGGNTNYADSVKGRFTISRDNAKNTVYLQMNSLKPEDTAVYYCAVLGWYYYKYDYWGQGTQVNVSS	high polyreactivity
QVQLVESGGGLVQAGGSLRLSRAASGATFYFNAMGWYSQAHGKERELVAGITYSGDSTYYADSVKGRFTLSRDNAKNPVYLQMNSLKPEDTAVYYCAADVDYDLDGDYWGQGTQVTVSS	low polyreactivity
QVQLVESGGGLVQAGGSLRLSCPASGGIFGRYAMGWYRQAPGKERELVAAISSSGGRTYYADSVKGRFTISRDNAKNTVYLQMNSLKPEDTAVYYCNADRHSTYGYWGQGTQVTVSS	high polyreactivity
QVQLVESGGGLVQAGGSLRLSCAASGFTFGVYAMGWYRPAPGKERELVAAITSGGGRTYADSVKGRFTISRDNAKNTVYLQMNSLKTEDTADYYCAAEGVPLRVVLDYSYWDYDYDYWGQGTQVTVSS	low polyreactivity
QVQLVESGGGLVQAGGSLRLSCAASGFTFSKYVMGWYRQAPGKERELVAAISKRGGSTYYADSVKGRFTISRDNAKNTVYLQMNSLKPEDTAVYYCAARYYLEPILEMDYWGQGTQVTVSS	high polyreactivity
QVQLVESGGGLVQAGGSLRLSCAASGFIFVKYDMGWYRQAHGKERELVAAITTSGTGTFYADSVKGRFTISRDNAKNTVDLQMNSLKPEDTAVYYCNSLGHPGDDWGQGTQVTVSS	low polyreactivity
QVQLVESRGGLVQAGGSLRLSCAASGRTFAVYALGWYRQAPGKEWELVAAITLGASRTYYADSVKGRFTISRDNAKNTVYLQMNSLKPEDTAVYSCNAVGRRNVDSSLNDYWGQGTQVTVSS	low polyreactivity
QVQLVESGGGLVQAGGSLRLSCAASGSTFKYNAMGWYRQAPGKERELVASISRSGGSTYYADSVKGRFTISRDNAKNTVYLQMNSLKPEDTAVYYCNVRRFVHYEYWGHGTQVTVSS	high polyreactivity
QVQLVESGGGLVQAGGSLRLSCAASGSILGTNAMGWYRQAPGKESELVAAINYSGGNTYYADSVKGRFTISRDNAKNTVYLQMNSLKPEDTAVYYCAAVNGWRRVKRFDYWGQGTQVTVSS	high polyreactivity
QVQLVESGGGLVQAGGSLRLSCAASGSISFSNAMGWYRQAPGKERELVASITSGGSTKYADSVKGRFTISRDNAKNTVYLQMNSLKPEDTAVYYCAADGYDYWGQGTQVTVSS	low polyreactivity
QVQRVESGGGLVQAGGSLRLSCAASGFIITRYSMGWYRQAPGKEREMVAVINSSGGSTYYADSVKGRFTISRDTAKNTVYVQMNSLKPEDTAVYYCNALSRYRIWSYGYWGQGTQVTVSS	high polyreactivity
QVQLQESGDGLVQAGGSLRLSSAASGTIFSDYGMGGYRQAPGKERELLAGISDGCNTNYTDSVKGRFTISRDNAHRVSADEQPETGGYRGVLLRGSERWLLFYVYWGQGTQVTVSS	high polyreactivity
QVQLVESGGGLVQAGGSLRLSCAASGFTFRQNAMGWYRQAPGNERELVAVITKSAGSTYYADSVKGRFTISRDNAKNTVYLQMNSLKPEATAVYYCNKRQRFVSSCRRSQGIGWEDDYWGQGTQVTVSS	low polyreactivity
QDQLGDSGGGLVQAGGSLRLSCAASGLTFYRYAMGWYRQAPGKERELVAAIRWNSGSTYYADSVKGRFTISRVNAKNTVYLQMNSLKPEDTAVYYCAATAIYPSAWRMAYWGQGTQVTVSS	high polyreactivity
QVQLVESGGGLVQAGGSLRLSCAASGLIFRHYTMGWYRQAPGKERELVAAISRSGGSTRYADSVKGRFTISRDNAKNTVYLQMNSLKPEDTAVYYCAASSVKSTWTLDYWGQGTQVTVSS	high polyreactivity
QVQLEESGGGLVKARGSLRLSCAASGRTFNFYYMGWYRQAPGKERELVAAISSSGGSTYYADSVKGRFTISRDTAKYTVYLQMISLIPEDTAVYYCAKGPLYSLCFQHDAPYRYGYWGQATQVTVSS	low polyreactivity
